For one molecule, cAMP assay EC50 (HEK293 cells stably expressing the kOR), leftward shift in the cAMP potency of the orthosteric ligand U50,488 and Ki results are on record in patent publication US20240269230A1.

Ends that are not written are not given here.

For experiment [1], the target named is T1, kappa opioid receptor (the kOR), mouse, with C-terminal GFP (the kOR-EGFP) (mouse), P33534.
T1 chain: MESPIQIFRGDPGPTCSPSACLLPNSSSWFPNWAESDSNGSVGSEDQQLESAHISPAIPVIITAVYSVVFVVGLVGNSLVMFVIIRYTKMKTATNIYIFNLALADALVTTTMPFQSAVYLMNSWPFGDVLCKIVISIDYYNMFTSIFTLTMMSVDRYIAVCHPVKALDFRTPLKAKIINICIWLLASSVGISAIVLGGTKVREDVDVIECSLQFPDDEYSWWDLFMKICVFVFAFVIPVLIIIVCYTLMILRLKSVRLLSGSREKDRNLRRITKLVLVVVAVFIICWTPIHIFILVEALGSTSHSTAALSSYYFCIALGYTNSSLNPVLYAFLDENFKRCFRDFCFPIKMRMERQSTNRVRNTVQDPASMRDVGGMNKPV
The experiment can be described thus: cell-based or functional assay.

Experiment [2] has as its target T1, kappa opioid receptor (the kOR), mouse, ….

By Ki is commonly meant the dissociation constant of the complex between target and ligand, obtained from inhibition or displacement. Low readings indicate a stronger hold on the target, high ones a looser hold on the target. In the case of GLPVCGETCVGGTCNTPGCKCSWPVCTRN (not fully specified (bridges); ends and bridges not checked) [[T20K]-kalata B1], in experiment [1], the cAMP assay EC50 (HEK293 cells stably expressing the kOR) was determined as 17 µM and the leftward shift in the cAMP potency of the orthosteric ligand U50,488 was found to be 9 fold. Further, the Ki in experiment [2] stood at 2.7 µM.
